How the values were obtained:
[1] = Library plate screen on five test substrates (4-AAP, 12-pNCA); type: biochemical; conditions: seven-crossover library, cell lysate, 20 mM H2O2
Description: These library plates were replicated and grown in 96 deep-well plates in 900 μL of LB media with 100 μg/ml ampicillin overnight at 30° C. and 250 rpm. 150 μL of this was then transferred to 850 μL of induction media (TB-media with final concentrations of 100 μg/ml ampicillin, 25 μg/ml thiamine, 0.5 mM δ-aminolevulinic acid and 0.6 mM IPTG). These were grown for 20-24 hours at 25° C. and 190 rpm, harvested by centrifugation at 5000×g for 8 minutes and frozen at -20° C. for at least 24 hours. Cells were resuspended using a pipetting robot (Multimek 96, Beckman) and lysed in 400 μL of Epps or Tris buffer (100 mM, pH 8.2) containing 0.8 mg/ml lysozyme and 2 units/mL DNaseI for 1 hour at 37° C. Plates were then spun for 8 minutes at 5000×g and 4° C. to pellet cell debris. 80 μL of lysate was transferred into 4 separate 96 well plates for each library plate. […] On one plate, high -throughput carbon monoxide spectroscopy was done in order to assess relative amounts of P450 (Otey, C. R. High-throughput carbon monoxide binding assay for cytochromes P450. In Directed Enzyme Evolution: Screening and Selection Methods, F. H. Arnold and […]. 137-139 (2003)) with 0.1 M sodium hydrosulfite being used in place of 0.4 M. The other three plates were used to assay activity on different substrates. Examples of assays that have been or could be used include the 4-AAP (Otey, C. R., and Joern, J. M. High-throughput screen for aromatic hydroxylation. In Directed Enzyme Evolution: Screening and Selection Methods, F. H. Arnold and […]. 141-148 (2003)), 12-pNCA (Schwaneberg et al., Anal. Biochem., 269:359-366 (1999), NBP assay ([…], et al., J Biomol Screen, 9:141-146 (2004)), 7-ethoxyresorufin (Sieber et al., Nat Biotechnol., 19:456-460 (2001)), vivid substrate assays (Marks et al., Assay Drug Dev Technol 1, 73-81 (2002); Marks et al., AAPS PharmSci 5, E18 (2003)), and purpald assays (Peters et al., J Am Chem Soc 125:13442-13450 (2003)). Since the heme domains were being used, the hydrogen peroxide was used to drive the reactions via the peroxide shunt (Cirino, P. C., and Arnold, F. H., Advanced Synthesis & Catalysis 344, 932-937 (2002)). The 4-AAP assay detects phenol-like compounds and consists of the addition of 40 μL of a 3.5× substrate solution (containing substrate concentrations dependent for each substrate) to 80 μL of lysate. […] Then a 7×(140 mM) H2O2 hydrogen peroxide solution was added resulting in a final concentration of 20 mM hydrogen peroxide. The reaction was mixed and left at room temperature without shaking for two hours and then quenched with 140 μL of 0.1 m NaOH and 4 M Urea. 38 μL of 0.6% 4-aminoantipyrine was added followed by blanking of the 96-well plate reader at 500 nm. 38 μL of 0.6% potassium persulfate was added and after 20 minutes the A500 was read. […]

[2] = Peroxidase activity with ABTS and H2O2; type: biochemical; conditions: 10 mM ABTS, 20 mM H2O2, pH 5.0; activities <0.2 not detectable (N.D.)
Text: P450s can reduce peroxide to water (and a proton) using a mechanism similar to that of peroxidases, although the intrinsic rate for P450s is many orders of magnitude slower. (Mansuy, D., Comp Biochem Physiol C Pharmacol Toxicol Endocrinol 121, 5-14 (1998)). It has been proposed that the earliest P450 function may have been as a peroxidase. (Gotoh, O., Cytochrome P450, 2nd Edition, pp. 255-272 (1993)). To investigate how recombination affects P450 peroxidase activity, the colorimetric substrate 2,2′-azino-bis(3-ethylbenzothiazoline-6-sulfonate) (ABTS) was used to monitor this reaction (Childs et al., Biochem J 145,93-103 (1975)).
This example provides an example of how one can measure peroxidase activity. Initial rates of peroxidase activity were measured by monitoring the accumulation of the radical cation of ABTS at 414 nm (Childs et al., Biochem J., 145:93-103 (1975)). Enzyme (1 μM) was mixed with 10 mM ABTS in 200 mM phosphate buffer (pH 5.0) in a cuvette at room temperature. Samples were zeroed and reactions were initiated with the addition of H2O2 to a concentration of 20 mM. The absorbance at 414 nm was monitored for 5 minutes. Rates were determined from the steepest portion of the time course. An extinction coefficient of […] for ABTS was used.

[3] = Thermostability (loss of Soret band at increasing temperatures); type: physicochemical; conditions: cell extracts heated 10 minutes
Description: Thermostability was assayed by monitoring the loss of the Soret band at increasing temperatures. […] However, thermostability may be important for retention of catalytic activity: the two chimeras that lacked peroxygenase activity were also the least thermostable.
Cell extracts were heated in a thermocycler for 10 minutes at various temperatures, followed by cooling to 4° C. Extracts were centrifuged for 5 minutes at 3500×g to remove any precipitates. Carbon monoxide reduced difference spectroscopy was used to quantitate the amount of P450. The reduction of the carbon monoxide peak was monitored over a range of temperatures.

[4] = Peroxygenase substrate activity profile; type: biochemical; conditions: 20 mM H2O2
Description: (§1) The chimeras were assayed for hydroxylation of p-nitrophenoxydodecanoic acid (12-pNCA), a fatty acid analog that is hydroxylated by CYP102A1 and CYP102A2 to yield p-nitrophenolate (Schwaneberg et al., Anal Biochem 269,359-366 (1999)). […] When hydroxylation rates for the parent CYP102 enzymes were monitored using the maximum soluble concentrations of these substrates, activity could only be detected on 2-phenoxy-ethanol.
Chimeras were assayed for peroxygenase activity on 12-pNCA, 2-phenoxy -ethanol and allyloxy-benzene. […] Rates are reported in nmol product/nmol P450/minute. […] Those with no activity include 65-256 and 277-365. Those with new activity include 165-256, 191-335, and 43-135.
This Example provides one method by which peroxygenase activity of a P450 enzyme may be characterized. First order rates for p-nitrophenolate accumulation were determined using 1 μM enzyme, 20 mM H2O2, 250 μM 12-pNCA and 0.5% dimethyl sulfoxide (DMSO) in 100 mM Tris-HCl (pH 8.2) at room temperature. Enzyme, substrate, buffer and DMSO were combined in a cuvette and zeroed at 410 nm. Reaction mixtures were incubated for 4 minutes and initiated by the addition of H2O2 to a final concentration of 20 mM. Initial rates were determined by monitoring the accumulation of p-nitrophenolate at 410 nm, and data from the first six seconds were used to determine initial rates. […] The extinction coefficient of p-nitrophenolate is 13,200 M^−1cm^−1 (Schwaneberg et al., Anal Biochem 269:359-366 (1999)).
(§2) Rates on 2-phenoxy-ethanol and allyloxy-benzene were determined using 2 μM enzyme, 20 mM H2O2, 1% DMSO, and 1% acetone in 100 mM N-[2-hydroxyethyl]piperazine-N′-[3-propanesulfonic acid] (Epps) (pH 8.2) at room temperature. Substrate concentrations for 2-phenoxy-ethanol (100 mM) and allyloxy benzene (50 mM) maintained saturation. Reactions were initiated by the addition of H2O2 and quenched at appropriate times using an equal volume of a solution containing 4M urea and 100 mM NaOH. 120 μl of 0.6% 4-AAP was added, followed by mixing and addition of 120 μl of 0.6% potassium persulfate. Color was allowed to develop for 20 minutes before absorbance was read at 500 nm. Rates were determined from the linear region of the time course. The major products were determined by GC/MS to be the hemiacetal, which decomposes to phenol. The extinction coefficient for the 4-AAP/phenol complex was determined to be 4,800 M^−1cm^−1. The results can be seen in FIG. 4.

[5] = Peroxygenase activity on 2-phenoxy-ethanol (4-AAP assay); type: biochemical
Description: as §1, §2

Molecule | activity on test substrates incl. novel substrates (diphenyl ether, allyloxy-benzene) [1] | Peroxidase activity [2] | Tm [3] [°C] | substrate activity profile relative to parents [4] | fold higher peroxygenase activity with 2-phenoxy-ethanol than the most active parent (CYP102A1) [5] [fold] | peroxygenase activity on 2-phenoxy-ethanol ([5]; 100 mM substrate)
Chimera F37233: chimera of the CYP102A1/A2/A3 seven-crossover library (protein, Chimeric Cytochrome P450 heme group polypeptide sequence from CYP102A1 (Bacillus megaterium); CYP102A2 (Bacillus subtilis) and CYP102A3 (Bacillus subtilis), chimera of the CYP102A1/A2/A3 seven-crossover library) KQASAIPQPKTYGPLKNLPHLEKEQLSQSLWRIADELGPIFRFDFPGVSSVFVSGHNLVAEVCDEKRFDKNLGKGLQKVREFGGDGLATSWTHEPNWQKAHRILLPSFSQKAMKGYHSMMLDIAVQLIQKWARLNPNEAVDVPGDMTRLTLDTIGLCGFNYRFNSYYRDQPHPFITSMVRALDEAMNKLQRANPDDPAYDENKRQFQEDIKVMNDLVDSIIAERRANGDQDEKDLLARMLNVEDPETGEKLDDENIRFQIITFLIAGHETTSGLLSFATYFLLKHPDKLKKAYEEVDRVLTDAAPTYKQVLELTYIRMILNESLRLWPTAPAFSLYAKEDTVLGGEYPLEKGDELMVLIPQLHRDKTIWGDDVEEFRPERFENPSAIPQHAFKPFGNGQRACIGQQFALQEATMVLGLVLKHFELINHTGYELKIKEALTIKPDDFKITVKPRKTAAINVQRKEQA | activity that is novel |  |  |  |  | 
Chimera 46-73: CYP102A1 heme domain with residues 46-73 from CYP102A2 (protein, Chimeric Cytochrome P450 heme group sequence from Bacillus megaterium and Bacillus subtilis, CYP102A1 heme domain with residues 46-73 from CYP102A2) TIKEMPQPKTFGELKNLPLLNTDKPVQALMKIADELGEIFKFEAPAGTTIVVSGHELVKEVCDEERFDKSIEGALKFVRDFAGDGLATSWTHEKNWKKAHNILLPSFSQQAMKGYHAMMVDIAVQLVQKWERLNADEHIEVPEDMTRLTLDTIGLCGFNYRFNSFYRDQPHPFITSMVRALDEAMNKLQRANPDDPAYDENKRQFQEDIKVMNDLVDKIIADRKASGEQSDDLLTHMLNGKDPETGEPLDDENIRYQIITFLIAGHETTSGLLSFALYFLVKNPHVLQKAAEEAARVLVDPVPSYKQVKQLKYVGMVLNEALRLWPTAPAFSLYAKEDTVLGGEYPLEKGDELMVLIPQLHRDKTIWGDDVEEFRPERFENPSAIPQHAFKPFGNGQRACIGQQFALHEATLVLGMMLKHFDFEDHTNYELDIKETLTLKPEGFVVKAKSKKIPLGGIPSPST |  | 6.8 nmol product/nmol P450/min | 55 | altered activity | 6 | highest activity
Chimera F3748: chimera of the CYP102A1/A2/A3 seven-crossover library (protein, Chimeric Cytochrome P450 heme group polypeptide sequence from CYP102A1 (Bacillus megaterium); CYP102A2 (Bacillus subtilis) and CYP102A3 (Bacillus subtilis), chimera of the CYP102A1/A2/A3 seven-crossover library) KQASAIPQPKTYGPLKNLPHLEKEQLSQSLWRIADELGPIFRFDFPGVSSVFVSGHNLVAEVCDEERFDKSIEGALEKVRAFSGDGLATSWTHEPNWRKAHNILMPTFSQRAMKDYHEKMVDIATQLIQKWSRLNPNEEIDVADDMTRLTLDTIGLCGFNYRFNSFYRDQPHPFITSMVRALDEAMNKLQRANPDDPAYDENKRQFQEDIKVMNDLVDRMIAERKANPDENIKDLLSLMLYAKDPVTGETLDDENIRYQIITFLIAGHETTSGLLSFATYFLLKHPDKLKKAYEEVDRVLTDAAPTYKQVLELTYIRMILNESLRLWPTAPAFSLYAKEDTVLGGEYPISKGQPVTVLIPKLHRDQNAWGPDAEDFRPERFEDPSSIPHHAYKPFGNGQRACIGMQFALQEATMVLGLVLKHFELINHTGYELKIKEALTIKPDDFKITVKPRKTAAINVQRKEQA | activity that is novel |  |  |  |  | 
